Measured values reported in patent US20260049138A1 (Chugai, published 2026).

Target: T1, CD3ε homodimer protein (human, UniProt P07766 23-126, limits assumed, sulfo-tag or biotin label in the ECL assays; amine-coupled to the chip in SPR)
T1 construct: also called human CD3ε homodimer protein; CD3 (CD3ε)
Experiment: SPR Biacore T200; CD3ε homodimer on CM4 chip;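 also: Single-residue variant antibodies injected as analyte over CD3ε homodimer immobilized by amine coupling, run at 25 °C in HBS-EP+ buffer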

T1 sequence (P07766 23-126 limits assumed): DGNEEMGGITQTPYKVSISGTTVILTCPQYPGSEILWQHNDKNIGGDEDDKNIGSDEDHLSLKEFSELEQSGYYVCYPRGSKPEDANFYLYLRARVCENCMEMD

Binder	ratio of amounts bound Z=Y/X (altered form / CE115HA000)
CE115HA000 S52cY one-arm antibody (antibody, human IgG1, kappa, L234A L235A, N297A, name in Kabat numbering) heavy: QVQLVESGGGVVQPGRSLRLSCAASGFTFSNAWMHWVRQAPGKGLEWVAQIKAKYNNYATYYAESVKGRFTISRDDSKNSLYLQMNSLKTEDTAVYYCRYVHYGAYYGVDAWGQGTTVTVSSASTKGPSVFPLAPSSKSTSGGTAALGCLVKDYFPEPVTVSWNSGALTSGVHTFPAVLQSSGLYSLSSVVTVPSSSLGTQTYICNVNHKPSNTKVDKKVEPKSCDKTHTCPPCPAPEAAGGPSVFLFPPKPKDTLMISRTPEVTCVVVDVSHEDPEVKFNWYVDGVEVHNAKTKPREEQYASTYRVVSVLTVLHQDWLNGKEYKCKVSNKALPAPIEKTISKAKGQPREPQVYTLPPSRCELTKNQVSLSCAVKGFYPSDIAVEWESNGQPENNYKTTPPVLDSDGSFFLVSKLTVDKSRWQQGNVFSCSVMHEALHNHYTQKSLSLSPDYKDDDDK EPKSSDKTHTCPPCPAPELLGGPSVFLFPPKPKDTLMISRTPEVTCVVVDVSHEDPEVKFNWYVDGVEVHNAKTKPREEQYNSTYRVVSVLTVLHQDWLNGKEYKCKVSNKALPAPIEKTISKAKGQPREPQVCTLPPSRDELTKNQVSLWCLVKGFYPSDIAVEWESNGQPENNYKTTPPVLDSDGSFFLYSKLTVDKSRWQQGNVFSCSVMHEALHNRYTQKSLSLSP light: DIVMTQSPLSLPVTPGEPASISCRSSQSLVHSNRNTYLHWYQQKPGQAPRLLIYKVSNRFSGVPDRFSGSGSGTDFTLKISRVEAEDVGVYYCGQGTQVPYTFGQGTKLEIKRTVAAPSVFIFPPSDEQLKSGTASVVCLLNNFYPREAKVQWKVDNALQSGNSQESVTEQDSKDSTYSLSSTLTLSKADYEKHKVYACEVTHQGLSSPVTKSFNRGEC	1.11
CE115HA000 S62D one-arm antibody (antibody, human IgG1, kappa, L234A L235A, N297A, name in Kabat numbering) heavy: QVQLVESGGGVVQPGRSLRLSCAASGFTFSNAWMHWVRQAPGKGLEWVAQIKAKSNNYATYYAEDVKGRFTISRDDSKNSLYLQMNSLKTEDTAVYYCRYVHYGAYYGVDAWGQGTTVTVSSASTKGPSVFPLAPSSKSTSGGTAALGCLVKDYFPEPVTVSWNSGALTSGVHTFPAVLQSSGLYSLSSVVTVPSSSLGTQTYICNVNHKPSNTKVDKKVEPKSCDKTHTCPPCPAPEAAGGPSVFLFPPKPKDTLMISRTPEVTCVVVDVSHEDPEVKFNWYVDGVEVHNAKTKPREEQYASTYRVVSVLTVLHQDWLNGKEYKCKVSNKALPAPIEKTISKAKGQPREPQVYTLPPSRCELTKNQVSLSCAVKGFYPSDIAVEWESNGQPENNYKTTPPVLDSDGSFFLVSKLTVDKSRWQQGNVFSCSVMHEALHNHYTQKSLSLSPDYKDDDDK EPKSSDKTHTCPPCPAPELLGGPSVFLFPPKPKDTLMISRTPEVTCVVVDVSHEDPEVKFNWYVDGVEVHNAKTKPREEQYNSTYRVVSVLTVLHQDWLNGKEYKCKVSNKALPAPIEKTISKAKGQPREPQVCTLPPSRDELTKNQVSLWCLVKGFYPSDIAVEWESNGQPENNYKTTPPVLDSDGSFFLYSKLTVDKSRWQQGNVFSCSVMHEALHNRYTQKSLSLSP light: DIVMTQSPLSLPVTPGEPASISCRSSQSLVHSNRNTYLHWYQQKPGQAPRLLIYKVSNRFSGVPDRFSGSGSGTDFTLKISRVEAEDVGVYYCGQGTQVPYTFGQGTKLEIKRTVAAPSVFIFPPSDEQLKSGTASVVCLLNNFYPREAKVQWKVDNALQSGNSQESVTEQDSKDSTYSLSSTLTLSKADYEKHKVYACEVTHQGLSSPVTKSFNRGEC	0.92
CE115HA000 S62E one-arm antibody (antibody, human IgG1, kappa, L234A L235A, N297A, name in Kabat numbering) heavy: QVQLVESGGGVVQPGRSLRLSCAASGFTFSNAWMHWVRQAPGKGLEWVAQIKAKSNNYATYYAEEVKGRFTISRDDSKNSLYLQMNSLKTEDTAVYYCRYVHYGAYYGVDAWGQGTTVTVSSASTKGPSVFPLAPSSKSTSGGTAALGCLVKDYFPEPVTVSWNSGALTSGVHTFPAVLQSSGLYSLSSVVTVPSSSLGTQTYICNVNHKPSNTKVDKKVEPKSCDKTHTCPPCPAPEAAGGPSVFLFPPKPKDTLMISRTPEVTCVVVDVSHEDPEVKFNWYVDGVEVHNAKTKPREEQYASTYRVVSVLTVLHQDWLNGKEYKCKVSNKALPAPIEKTISKAKGQPREPQVYTLPPSRCELTKNQVSLSCAVKGFYPSDIAVEWESNGQPENNYKTTPPVLDSDGSFFLVSKLTVDKSRWQQGNVFSCSVMHEALHNHYTQKSLSLSPDYKDDDDK EPKSSDKTHTCPPCPAPELLGGPSVFLFPPKPKDTLMISRTPEVTCVVVDVSHEDPEVKFNWYVDGVEVHNAKTKPREEQYNSTYRVVSVLTVLHQDWLNGKEYKCKVSNKALPAPIEKTISKAKGQPREPQVCTLPPSRDELTKNQVSLWCLVKGFYPSDIAVEWESNGQPENNYKTTPPVLDSDGSFFLYSKLTVDKSRWQQGNVFSCSVMHEALHNRYTQKSLSLSP light: DIVMTQSPLSLPVTPGEPASISCRSSQSLVHSNRNTYLHWYQQKPGQAPRLLIYKVSNRFSGVPDRFSGSGSGTDFTLKISRVEAEDVGVYYCGQGTQVPYTFGQGTKLEIKRTVAAPSVFIFPPSDEQLKSGTASVVCLLNNFYPREAKVQWKVDNALQSGNSQESVTEQDSKDSTYSLSSTLTLSKADYEKHKVYACEVTHQGLSSPVTKSFNRGEC	0.92
CE115HA000 S62K one-arm antibody (antibody, human IgG1, kappa, L234A L235A, N297A, name in Kabat numbering) heavy: QVQLVESGGGVVQPGRSLRLSCAASGFTFSNAWMHWVRQAPGKGLEWVAQIKAKSNNYATYYAEKVKGRFTISRDDSKNSLYLQMNSLKTEDTAVYYCRYVHYGAYYGVDAWGQGTTVTVSSASTKGPSVFPLAPSSKSTSGGTAALGCLVKDYFPEPVTVSWNSGALTSGVHTFPAVLQSSGLYSLSSVVTVPSSSLGTQTYICNVNHKPSNTKVDKKVEPKSCDKTHTCPPCPAPEAAGGPSVFLFPPKPKDTLMISRTPEVTCVVVDVSHEDPEVKFNWYVDGVEVHNAKTKPREEQYASTYRVVSVLTVLHQDWLNGKEYKCKVSNKALPAPIEKTISKAKGQPREPQVYTLPPSRCELTKNQVSLSCAVKGFYPSDIAVEWESNGQPENNYKTTPPVLDSDGSFFLVSKLTVDKSRWQQGNVFSCSVMHEALHNHYTQKSLSLSPDYKDDDDK EPKSSDKTHTCPPCPAPELLGGPSVFLFPPKPKDTLMISRTPEVTCVVVDVSHEDPEVKFNWYVDGVEVHNAKTKPREEQYNSTYRVVSVLTVLHQDWLNGKEYKCKVSNKALPAPIEKTISKAKGQPREPQVCTLPPSRDELTKNQVSLWCLVKGFYPSDIAVEWESNGQPENNYKTTPPVLDSDGSFFLYSKLTVDKSRWQQGNVFSCSVMHEALHNRYTQKSLSLSP light: DIVMTQSPLSLPVTPGEPASISCRSSQSLVHSNRNTYLHWYQQKPGQAPRLLIYKVSNRFSGVPDRFSGSGSGTDFTLKISRVEAEDVGVYYCGQGTQVPYTFGQGTKLEIKRTVAAPSVFIFPPSDEQLKSGTASVVCLLNNFYPREAKVQWKVDNALQSGNSQESVTEQDSKDSTYSLSSTLTLSKADYEKHKVYACEVTHQGLSSPVTKSFNRGEC	1.19
